Test results reported in publication PMC3040172, “The Impact of the C-Terminal Domain on the Interaction of Human DNA Topoisomerase II α and β with DNA”.

What was measured:
Details in all cases: protein: recombinant; chain copies: 2; blunt; as printed S2 is not the exact complement of S1: 2 mismatches at S1 positions 34-35 (possible typo)
[1] = biological target: T1, DNA topoisomerase II alpha, full length (human, UniProt P11388 1-1531); assay: fluorescence anisotropy; no metal; 50 mM Tris pH 8, 5% glycerol, 50 mM KCl, 1% Triton X-100, 100 µg/ml acetylated BSA, 20°C; HEX oligo printed as 1 µM; 10 mM MgCl2 or CaCl2 where described
[2] = biological target: T2, DNA topoisomerase II beta, full length (human, UniProt Q02880 1-1626); assay: as above
[3] = biological target: Truncated topoisomerase II beta (C-terminal domain deleted) (human, UniProt Q02880 51-1268); assay: fluorescence anisotropy; 50 mM Tris pH 8, 5% glycerol, 50 mM KCl, 1% Triton X-100, 100 µg/ml acetylated BSA, 20°C; HEX oligo printed as 1 µM; 10 mM MgCl2 or CaCl2 where described
[4] = biological target: Truncated topoisomerase II alpha (C-terminal domain deleted) (human, UniProt P11388 29-1242); assay: as above
[5] = biological target: T1, DNA topoisomerase II alpha, full length; assay: as above
[6] = biological target: T2, DNA topoisomerase II beta, full length; assay: as above
[7] = biological target: T1, DNA topoisomerase II alpha, full length; assay: fluorescence anisotropy; 10 mM CaCl2; 50 mM Tris pH 8, 5% glycerol, 50 mM KCl, 1% Triton X-100, 100 µg/ml acetylated BSA, 20°C; HEX oligo printed as 1 µM; 10 mM MgCl2 or CaCl2 where described
[8] = biological target: T2, DNA topoisomerase II beta, full length; assay: as above
[9] = biological target: T1, DNA topoisomerase II alpha, full length; assay: fluorescence anisotropy; 10 mM MgCl2; 50 mM Tris pH 8, 5% glycerol, 50 mM KCl, 1% Triton X-100, 100 µg/ml acetylated BSA, 20°C; HEX oligo printed as 1 µM; 10 mM MgCl2 or CaCl2 where described
[10] = biological target: T2, DNA topoisomerase II beta, full length; assay: as above

T2 sequence (Q02880 whole entry, the tested form may be a part): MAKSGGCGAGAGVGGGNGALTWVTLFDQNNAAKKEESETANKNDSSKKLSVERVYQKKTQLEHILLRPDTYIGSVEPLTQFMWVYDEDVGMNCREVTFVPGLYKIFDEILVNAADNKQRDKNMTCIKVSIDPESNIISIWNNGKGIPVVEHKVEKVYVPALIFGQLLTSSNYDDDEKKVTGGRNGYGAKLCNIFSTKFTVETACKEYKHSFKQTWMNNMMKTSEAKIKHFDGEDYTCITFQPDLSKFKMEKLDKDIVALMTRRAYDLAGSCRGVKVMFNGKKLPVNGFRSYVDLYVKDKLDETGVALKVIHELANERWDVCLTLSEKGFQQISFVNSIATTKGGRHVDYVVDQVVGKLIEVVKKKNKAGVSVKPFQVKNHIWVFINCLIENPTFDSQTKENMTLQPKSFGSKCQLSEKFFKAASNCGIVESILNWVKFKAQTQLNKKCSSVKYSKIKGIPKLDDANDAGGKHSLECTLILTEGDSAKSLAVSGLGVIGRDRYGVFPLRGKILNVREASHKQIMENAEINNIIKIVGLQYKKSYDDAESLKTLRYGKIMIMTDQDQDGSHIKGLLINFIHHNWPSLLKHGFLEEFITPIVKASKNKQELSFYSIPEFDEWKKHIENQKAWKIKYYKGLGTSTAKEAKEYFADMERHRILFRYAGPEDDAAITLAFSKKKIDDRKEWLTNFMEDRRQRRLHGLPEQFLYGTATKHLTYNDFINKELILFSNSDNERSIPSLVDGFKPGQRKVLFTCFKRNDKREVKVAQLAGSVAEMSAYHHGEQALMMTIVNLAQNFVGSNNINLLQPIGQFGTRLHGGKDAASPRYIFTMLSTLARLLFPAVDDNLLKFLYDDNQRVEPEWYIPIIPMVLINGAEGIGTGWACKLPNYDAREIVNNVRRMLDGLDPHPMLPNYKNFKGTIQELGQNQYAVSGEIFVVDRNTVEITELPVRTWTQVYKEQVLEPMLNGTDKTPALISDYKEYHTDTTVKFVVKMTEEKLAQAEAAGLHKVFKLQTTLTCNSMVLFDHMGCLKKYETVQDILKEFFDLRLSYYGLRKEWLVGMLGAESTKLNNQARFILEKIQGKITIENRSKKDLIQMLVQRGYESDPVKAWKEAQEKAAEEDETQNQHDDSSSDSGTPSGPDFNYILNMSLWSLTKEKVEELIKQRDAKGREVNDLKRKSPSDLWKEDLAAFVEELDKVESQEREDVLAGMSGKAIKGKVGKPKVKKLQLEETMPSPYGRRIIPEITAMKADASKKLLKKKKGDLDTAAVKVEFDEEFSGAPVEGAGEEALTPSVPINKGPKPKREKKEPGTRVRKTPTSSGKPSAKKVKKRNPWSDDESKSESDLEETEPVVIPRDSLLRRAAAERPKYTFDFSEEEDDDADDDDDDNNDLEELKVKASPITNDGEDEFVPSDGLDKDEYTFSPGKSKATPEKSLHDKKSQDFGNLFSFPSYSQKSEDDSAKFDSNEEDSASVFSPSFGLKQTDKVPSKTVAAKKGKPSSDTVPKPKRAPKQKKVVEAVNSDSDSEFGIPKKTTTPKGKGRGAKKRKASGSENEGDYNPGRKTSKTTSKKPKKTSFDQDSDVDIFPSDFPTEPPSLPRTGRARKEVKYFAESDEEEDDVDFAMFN
T1 sequence (P11388 whole entry): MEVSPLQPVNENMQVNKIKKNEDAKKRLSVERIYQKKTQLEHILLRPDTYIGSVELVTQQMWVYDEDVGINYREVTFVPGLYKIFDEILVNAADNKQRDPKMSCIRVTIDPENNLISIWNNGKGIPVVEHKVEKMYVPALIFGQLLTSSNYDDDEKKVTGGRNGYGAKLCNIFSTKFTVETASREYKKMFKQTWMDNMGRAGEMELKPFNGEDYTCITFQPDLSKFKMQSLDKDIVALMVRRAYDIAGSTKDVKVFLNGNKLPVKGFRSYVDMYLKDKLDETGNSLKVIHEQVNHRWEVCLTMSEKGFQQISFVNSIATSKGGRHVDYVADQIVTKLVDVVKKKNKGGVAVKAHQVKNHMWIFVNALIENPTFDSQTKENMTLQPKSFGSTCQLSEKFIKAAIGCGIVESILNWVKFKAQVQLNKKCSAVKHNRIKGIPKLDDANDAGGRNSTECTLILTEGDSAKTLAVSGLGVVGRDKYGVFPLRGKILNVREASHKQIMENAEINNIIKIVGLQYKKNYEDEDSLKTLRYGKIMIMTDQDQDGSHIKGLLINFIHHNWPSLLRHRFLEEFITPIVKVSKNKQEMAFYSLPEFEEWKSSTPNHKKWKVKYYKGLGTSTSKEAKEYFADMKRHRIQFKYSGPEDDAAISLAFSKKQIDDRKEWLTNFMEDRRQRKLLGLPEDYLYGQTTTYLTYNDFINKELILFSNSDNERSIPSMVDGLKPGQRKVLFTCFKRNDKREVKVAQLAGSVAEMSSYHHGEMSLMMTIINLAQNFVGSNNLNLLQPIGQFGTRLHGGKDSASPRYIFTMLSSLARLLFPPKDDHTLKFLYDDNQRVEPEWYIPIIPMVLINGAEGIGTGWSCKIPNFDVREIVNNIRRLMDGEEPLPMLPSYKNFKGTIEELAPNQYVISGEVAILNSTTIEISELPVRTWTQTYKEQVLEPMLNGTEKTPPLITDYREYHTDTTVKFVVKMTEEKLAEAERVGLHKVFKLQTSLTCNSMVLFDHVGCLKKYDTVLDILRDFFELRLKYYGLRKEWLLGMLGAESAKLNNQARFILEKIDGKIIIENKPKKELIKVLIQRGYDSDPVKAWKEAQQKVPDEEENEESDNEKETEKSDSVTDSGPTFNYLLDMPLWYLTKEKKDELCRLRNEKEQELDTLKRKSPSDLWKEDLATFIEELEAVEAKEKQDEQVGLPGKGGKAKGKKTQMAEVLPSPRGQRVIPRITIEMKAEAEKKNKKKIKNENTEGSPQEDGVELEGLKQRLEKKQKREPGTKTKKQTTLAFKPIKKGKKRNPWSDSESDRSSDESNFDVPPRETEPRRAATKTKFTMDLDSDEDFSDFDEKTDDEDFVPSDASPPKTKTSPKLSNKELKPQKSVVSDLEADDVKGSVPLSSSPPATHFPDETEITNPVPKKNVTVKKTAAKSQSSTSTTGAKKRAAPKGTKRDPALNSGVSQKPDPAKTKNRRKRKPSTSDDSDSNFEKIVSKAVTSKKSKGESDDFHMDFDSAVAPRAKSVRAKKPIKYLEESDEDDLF
Truncated topoisomerase II beta (C-terminal domain deleted), sequence (Q02880 51-1268, stated change not applied): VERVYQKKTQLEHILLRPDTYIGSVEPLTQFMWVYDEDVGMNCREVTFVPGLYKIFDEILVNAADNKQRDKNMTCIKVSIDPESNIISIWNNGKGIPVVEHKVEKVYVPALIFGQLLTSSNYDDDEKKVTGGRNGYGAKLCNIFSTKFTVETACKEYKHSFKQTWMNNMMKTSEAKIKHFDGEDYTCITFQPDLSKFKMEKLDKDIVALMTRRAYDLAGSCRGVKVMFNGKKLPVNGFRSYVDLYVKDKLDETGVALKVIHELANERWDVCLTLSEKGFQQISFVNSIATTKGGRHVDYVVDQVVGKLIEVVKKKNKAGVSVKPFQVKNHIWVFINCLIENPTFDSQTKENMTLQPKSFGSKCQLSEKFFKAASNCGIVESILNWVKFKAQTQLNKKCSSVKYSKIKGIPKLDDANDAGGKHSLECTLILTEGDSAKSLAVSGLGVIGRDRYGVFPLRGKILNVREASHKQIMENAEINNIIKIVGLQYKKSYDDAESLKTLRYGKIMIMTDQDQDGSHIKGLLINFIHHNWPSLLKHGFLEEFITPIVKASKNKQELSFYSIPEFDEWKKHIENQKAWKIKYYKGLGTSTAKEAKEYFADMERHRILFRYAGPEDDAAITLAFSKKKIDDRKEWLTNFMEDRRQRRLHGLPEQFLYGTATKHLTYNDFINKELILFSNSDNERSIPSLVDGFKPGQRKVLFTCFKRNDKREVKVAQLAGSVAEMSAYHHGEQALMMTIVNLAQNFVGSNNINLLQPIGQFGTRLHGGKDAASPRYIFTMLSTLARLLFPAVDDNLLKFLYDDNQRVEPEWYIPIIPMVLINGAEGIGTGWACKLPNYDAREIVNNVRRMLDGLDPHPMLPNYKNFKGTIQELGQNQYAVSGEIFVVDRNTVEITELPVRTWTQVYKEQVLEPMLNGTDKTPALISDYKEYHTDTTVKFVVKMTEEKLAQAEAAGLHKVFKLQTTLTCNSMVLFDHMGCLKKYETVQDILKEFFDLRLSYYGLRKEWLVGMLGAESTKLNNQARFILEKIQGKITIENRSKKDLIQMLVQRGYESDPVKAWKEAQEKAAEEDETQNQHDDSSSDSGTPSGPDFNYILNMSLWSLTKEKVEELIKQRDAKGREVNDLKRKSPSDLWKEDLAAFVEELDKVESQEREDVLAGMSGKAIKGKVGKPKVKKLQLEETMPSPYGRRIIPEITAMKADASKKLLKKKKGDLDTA

B1: 40 bp oligo AB (dsDNA)
DNA 1: CGCAATCTGACAATGCGCTCATCGTCATCCTCGCGACGCG
DNA 2: CGCGTGCCGAGGATGACGATGAGCGCATTGTCAGATTGCG
B1 gave a Kd [1] of 160 nM, a Kd [2] of 46.4 nM and a Kd [3] of 17.8 nM. It also gave a Kd [4] of 116 nM, a Kd [5] of 189 nM and a Kd [6] of 72.9 nM. It also gave a Kd [7] of 178 nM, a Kd [8] of 84.3 nM and a Kd [9] of 150 nM. For the same binder, the Kd [10] was 55.4 nM.
